B1: Twister Ribozyme (parent)
chain: AACACUGCCAAUGCCGGUCCCAAGCCCGGAUAAAAGUGGAGGGGGCGG

Variants of: B1
Experiment: self-cleavage, relative activity (ratio to wild type); higher = more cleavage; co-transcriptional

Variant | self-cleavage
A2U G7A | 0.0893
G17A C25A | 0.164
U6C G47A | 0.579
C15A A32G | 0.583
C8U C46U | 0.726
A4G C46G | 1.15
G16C U37C | 0.0928
A23G C26U | 0.101
G44C G48U | 0.225
C8U U12A | 0.825
A1U A2U | 0.0794
U18A C26A | 0.313
C20G C46U | 0.119
C20U C26U | 0.128
A10U U18G | 0.115
C3A G38U | 0.191
A23G G43U | 0.0895
G28C G38C | 0.531
C27G G38A | 0.0803
C14G C46G | 0.101
U37G G44C | 0.669
C15U C46G | 0.887
A2G A22C | 0.129
A2U C8A | 0.078

Variant | self-cleavage
C5G G13C | 0.0798
A34C G43A | 0.13
U18A A33U | 0.391
C19A G36U | 0.0959
A1U C3G | 0.0927
A1C C5A | 0.198
U6C C14G | 0.0559
A1C A22G | 0.149
A1C A22U | 0.14
A1G C5G | 0.172
G13A C46G | 0.848
C21U G47U | 0.109
G38U G48C | 1.05
G17U G24C | 0.0691
C5U G44C | 0.864
C5A C26G | 0.0639
A34G G42A | 0.133
C8U G47C | 0.199
G17A G24A | 0.118
C26U A33G | 0.17
G24C G44C | 0.0955
G28A G43A | 0.191
C8G U18G | 0.0605
C8A A10C | 0.594

Variant | self-cleavage
G16A G24U | 0.113
C19U A30U | 0.82
C3U A10G | 0.474
U6C A11U | 0.673
G7U G13C | 0.0504
G28A G41U | 0.397
U18C U31C | 0.569
C3U G44A | 0.382
A4U G44A | 0.248
G28A G48C | 0.94
A4C C46U | 0.163
C9A C25U | 0.185
U18A U37A | 0.0711
A4C C14A | 0.33
C27A U31A | 0.676
A1C C8U | 0.193
G7U C20A | 0.0332
A10C C46G | 0.714
U6A U12A | 1.13
C21G A32U | 0.196
C9A G24A | 0.0968
C15G C21A | 0.077
A11C U37C | 0.808
A1C G38A | 0.189

Variant | self-cleavage
C9A C27U | 0.304
A22C U37C | 0.624
U12G G44U | 0.799
A30U G42U | 0.434
A11U G47U | 0.98
G7C G44A | 0.0625
G43U G48U | 0.198
A23U G48U | 0.439
C26A A32G | 0.636
C5G A11G | 0.696
C5G A11U | 0.665
C21U A23G | 0.0801
C3G A22U | 0.384
C14G C20U | 0.25
G42C G45C | 0.131
A2U G24U | 0.0983
U6C U18C | 0.0688
G13C C46G | 0.268
G7C C8U | 0.0597
A2C C8A | 0.0745
U6G U31C | 0.365
A22G U37G | 0.0844
A1U C20G | 0.112
U12A G41C | 0.264

Variant | self-cleavage
C21A G44A | 0.113
C3G A23U | 0.107
C14G G38C | 0.159
C3G U31G | 0.44
G28U U31A | 0.881
A10G G38A | 0.89
C3U C21U | 0.0611
U31G G48C | 1.19
U18G G38A | 0.0601
C3U U37G | 0.406
U18G G41C | 0.0434
G41U | 0.752
G13A C21A | 0.0879
C5U G45A | 0.605
A4U C25U | 0.0507
U31G C46A | 1.1
G41C G42C | 0.129
A22C G38A | 0.894
C27A G47C | 0.183
C15A A34C | 0.156
G16C A34G | 0.298
A2C C20U | 0.0643
G13C G36U | 0.0844
G29U G43U | 0.299

Variant | self-cleavage
A4C G39C | 0.0869
C9G A30C | 0.649
C8U A22C | 0.863
C15U G42A | 0.204
C20U G43C | 0.125
A34U C46G | 0.839
C21A A33C | 0.112
A35C G41A | 0.611
C8A U37G | 0.3
A1C A35G | 0.186
G29C A35U | 0.885
A4G G7A | 0.169
G24U G36A | 0.124
A2G A10G | 0.312
C27A G29A | 0.382
C27A G29U | 0.132
G7U C15A | 0.0847
A33U A35G | 0.8
C14A C15U | 0.746
U6A U18G | 0.0743
G42C G44C | 0.17
G39C G41U | 0.122
G13U G38C | 0.6
A2C C14A | 0.0856

Variant | self-cleavage
A10G G28C | 1.05
C21A A22C | 0.101
C26U G42C | 0.15
A1U U6G | 0.107
A34C G42C | 0.184
G7A A23C | 0.0662
C26A C27A | 0.173
G39A G45U | 0.231
G39A G45C | 0.234
C15G G42A | 0.0628
U12C G48A | 0.952
U18G G47C | 0.0806
C14U G44C | 0.983
C25G A33C | 0.227
G17A G44C | 0.733
C20G A23C | 0.118
A33C G45A | 0.795
C27G C46G | 0.1
A35U G39A | 0.316
C14G A23C | 0.0556
G24U C25A | 0.115
A10G G13A | 1.09
G28U G42C | 0.407
C15U G38C | 0.801

Variant | self-cleavage
A10G A11G | 0.886
C9U A30G | 0.865
C19A C27U | 0.0993
A32U | 0.975
A32G | 0.961
G36U A40G | 0.125
C3G G48U | 0.549
A10U C25G | 0.194
C9A G44C | 0.425
G24C G28A | 0.0981
G28C A30U | 0.857
U12C A32G | 1.24
C26U A30U | 0.556
C5A U6A | 0.0843
G13U A23G | 0.0827
A4G G36A | 0.385
U6A G44A | 0.943
G24U A35U | 0.175
C14G G48U | 0.128
U12A A32U | 1.1
C8G G36C | 0.119
C26A G41C | 0.124
U6A G48A | 0.76
A4C G47U | 0.121

Variant | self-cleavage
G13U G16A | 0.302
C15A G28A | 0.865
A32G U37G | 0.716
A10G U37C | 0.946
C20G U37A | 0.0911
C14A G45U | 0.698
A10C A40G | 0.181
G42C G43U | 0.137
G36C G43C | 0.0794
G16A C21G | 0.0789
U18C C20U | 0.375
U31G G43A | 0.324
A23C A33U | 0.13
C5A A40G | 0.0921
C21U G41U | 0.136
A2C A35U | 0.0477
C25A G41A | 0.074
C15G C26A | 0.0956
C15G C26U | 0.0429
C20A C26G | 0.105
A1C G7C | 0.121
U12G G17U | 0.239
C19A G38C | 0.0851
C19U G41C | 0.104

Variant | self-cleavage
A4C C5G | 0.0446
G7A G39U | 0.15
C8U A32G | 0.385
A2G C14U | 0.275
A11G A22G | 0.23
G7C C9G | 0.0747
G7C C9U | 0.101
C8A C19U | 0.107
C5U G42U | 0.134
C5U U6A | 0.674
U31G G38A | 0.937
C25A A34U | 0.0738
C25A A34G | 0.1
A22C G28C | 0.955
G38A G48A | 0.998
G38A G48C | 1.04
G17A A22C | 0.669
A4C A10C | 0.152
A4U C26G | 0.0523
G13U C15A | 0.11
A1G G28C | 0.466
A11C A22G | 0.168
C27G G29C | 0.0656
U6C G13C | 0.107

Variant | self-cleavage
A2U A40C | 0.155
A1U G17A | 0.0711
A11C G39U | 0.214
U12A A40G | 0.136
G44A G48A | 0.927
C19G G43A | 0.242
C8G A11G | 0.392
C14A C25A | 0.242
G38C G48U | 1.06
C9A G43A | 0.153
C26G A33G | 0.154
A33C A35C | 0.522
A33C A35G | 0.707
U18C C19G | 0.0747
A33U U37G | 0.591
G16A G45A | 0.891
G41C G47U | 0.149
A35U G44U | 0.92
C5A G43C | 0.118
C20A G29A | 0.138
C14U A32C | 1.03
A22G G41U | 0.119
A1G U18G | 0.136
U18G C21U | 0.0712

Variant | self-cleavage
C14U C15G | 0.36
A2G C5U | 0.153
G7A C21A | 0.059
A4U A11C | 0.0933
U6A G7C | 0.234
G38C A40U | 0.129
U6G G43U | 0.184
C5A G42U | 0.138
G17A A30U | 0.695
U12C A30C | 0.761
C20G C25G | 0.0818
G47C G48A | 0.666
C19A U31C | 0.375
G17C G29U | 0.0973
G17C G29A | 0.0678
U37G C46A | 0.619
G17C A40C | 0.117
A2C C21A | 0.0892
C19G A30U | 0.456
G17C C19G | 0.0591
U12C G42A | 0.42
C9A A34U | 0.535
A10G G45C | 0.639
U12A G39C | 0.127

Variant | self-cleavage
C3A A10G | 0.322
C3A A10U | 0.0843
G17U G43A | 0.13
C3A C8G | 0.0742
G42A G45U | 0.153
G28C G45A | 0.552
A34C A35G | 0.212
C9G G44C | 0.395
U12C C14G | 0.0887
G7A C46A | 0.354
C25U C27G | 0.101
G7C A34G | 0.061
U12G C26A | 0.589
G36U U37A | 0.177
A33G A35G | 0.865
C19G G24U | 0.0534
G17U C26G | 0.637
A34G G38U | 0.677
C27G A33C | 0.0584
G17A C26A | 0.78
G17A C26G | 0.442
C15G C19G | 0.0636
A32G A35G | 0.718
C3A G41A | 0.0897

Variant | self-cleavage
G39A | 0.568
U6C A10U | 0.602
C14U A30U | 1.06
A35G G48A | 0.913
G7A C14U | 0.43
G24U A33C | 0.142
C8U G16U | 0.459
A4G G38U | 0.947
U37C G41C | 0.087
C8U U37C | 0.284
G7A U37C | 0.111
C3A G7A | 0.0709
C15U G29C | 0.194
G7U C19U | 0.0568
G7A A40U | 0.127
A1C C27A | 0.192
C8G G29C | 0.077
C8G G29A | 0.3
A10G G24C | 0.131
U18G G39A | 0.107
A2C G7C | 0.0586
G16U G36U | 0.124

— the RNAGym collection of RNA variant scans (doi:10.7554/elife.80360)
